In patent US8114832:

Tests used:
[1] = molecular target: Native MSA (nMSA), P07724
[2] = molecular target: heat/acid denatured glucagon, P01275
[3] = molecular target: T1, heat-denatured OVA (dOVA), P01012
T1 chain: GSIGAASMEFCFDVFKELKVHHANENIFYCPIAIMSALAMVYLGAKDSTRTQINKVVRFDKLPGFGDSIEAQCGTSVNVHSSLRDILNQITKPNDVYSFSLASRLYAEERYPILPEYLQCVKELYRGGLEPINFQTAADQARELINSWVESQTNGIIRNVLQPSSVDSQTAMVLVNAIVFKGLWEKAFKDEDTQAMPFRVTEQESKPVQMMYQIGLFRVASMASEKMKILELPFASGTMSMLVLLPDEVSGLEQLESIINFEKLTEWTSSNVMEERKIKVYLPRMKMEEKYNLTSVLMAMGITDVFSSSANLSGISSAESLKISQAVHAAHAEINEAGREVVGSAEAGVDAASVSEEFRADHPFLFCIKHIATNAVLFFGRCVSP

[4] = molecular target: reduced-alkylated MSA (alkyl-MSA), P07724
[5] = molecular target: heat-denatured MSA, P07724
[6] = molecular target: T2, human fibrin α-chain(148-160) amyloid fragment with Lys157Gly mutation (FP13)
T2 chain: KRLEVDIDIGIRS

[7] = molecular target: Human amyloid-β (1-40) Dutch type
[8] = molecular target: glycated hemoglobin (Hb-AGE), P69905
[9] = molecular target: modified gelatin for infusion stored at 37° C.
[10] = molecular target: human-modified gelatin (Gelofusine), stored at 4° C.
mIAPP = molecular target: T3, mIAPP
T3 sequence (P12968 38-74, species assumed, looked up): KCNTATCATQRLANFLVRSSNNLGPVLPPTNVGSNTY

[11] = molecular target: T4, non-amyloid fragment FP10 of human fibrin α-chain(148-157)
T4 chain: KRLEVDIDIK

[12] = molecular target: T5, freshly dissolved FP13 K157G
T5 chain: KRLEVDIDIGIRS

Sequence of native Hb, P69905 (P69905 2-142, chain 1 of 2): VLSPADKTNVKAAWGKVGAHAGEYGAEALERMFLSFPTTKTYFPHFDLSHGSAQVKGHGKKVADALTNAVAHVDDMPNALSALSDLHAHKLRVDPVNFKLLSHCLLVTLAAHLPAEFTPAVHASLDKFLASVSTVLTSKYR
Sequence of native Hb, P69905 (chain, as listed by the source, chain 2 of 2): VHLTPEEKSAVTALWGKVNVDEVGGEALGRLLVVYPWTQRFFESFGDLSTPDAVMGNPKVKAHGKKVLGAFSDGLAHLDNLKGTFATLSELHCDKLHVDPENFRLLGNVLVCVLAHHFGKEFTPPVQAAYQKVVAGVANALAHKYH
Sequence of glycated hemoglobin (Hb-AGE), P69905 (P69905 2-142, chain 1 of 2): as the sequence (P69905 2-142, chain 1 of 2) above
Sequence of glycated hemoglobin (Hb-AGE), P69905 (chain, as listed by the source, chain 2 of 2): as the sequence (chain, as listed by the source, chain 2 of 2) above
Sequence of heat/acid denatured glucagon, P01275 (P01275 53-81): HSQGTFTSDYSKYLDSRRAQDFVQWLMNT
Sequence of heat-denatured MSA, P07724 (P07724 25-608): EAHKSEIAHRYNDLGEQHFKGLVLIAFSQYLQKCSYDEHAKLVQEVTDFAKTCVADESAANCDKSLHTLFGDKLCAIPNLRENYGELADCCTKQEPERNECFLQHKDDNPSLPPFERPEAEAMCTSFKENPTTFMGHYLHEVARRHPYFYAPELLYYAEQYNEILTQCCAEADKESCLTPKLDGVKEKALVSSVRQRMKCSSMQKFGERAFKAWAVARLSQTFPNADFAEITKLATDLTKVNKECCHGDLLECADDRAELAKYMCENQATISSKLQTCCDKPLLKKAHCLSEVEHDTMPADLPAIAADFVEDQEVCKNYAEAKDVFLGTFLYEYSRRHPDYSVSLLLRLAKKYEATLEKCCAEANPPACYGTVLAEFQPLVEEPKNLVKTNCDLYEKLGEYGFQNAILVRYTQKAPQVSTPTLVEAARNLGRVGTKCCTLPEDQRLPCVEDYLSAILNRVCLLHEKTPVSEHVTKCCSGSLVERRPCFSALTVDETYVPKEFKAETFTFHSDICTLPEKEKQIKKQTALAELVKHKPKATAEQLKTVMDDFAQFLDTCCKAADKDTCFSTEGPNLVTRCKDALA
Sequence of Native MSA (nMSA), P07724 (P07724 25-608): as above
Sequence of reduced-alkylated MSA (alkyl-MSA), P07724 (P07724 25-608): as above
Sequence of endostatin, P39060 (P39060 whole entry, looked up): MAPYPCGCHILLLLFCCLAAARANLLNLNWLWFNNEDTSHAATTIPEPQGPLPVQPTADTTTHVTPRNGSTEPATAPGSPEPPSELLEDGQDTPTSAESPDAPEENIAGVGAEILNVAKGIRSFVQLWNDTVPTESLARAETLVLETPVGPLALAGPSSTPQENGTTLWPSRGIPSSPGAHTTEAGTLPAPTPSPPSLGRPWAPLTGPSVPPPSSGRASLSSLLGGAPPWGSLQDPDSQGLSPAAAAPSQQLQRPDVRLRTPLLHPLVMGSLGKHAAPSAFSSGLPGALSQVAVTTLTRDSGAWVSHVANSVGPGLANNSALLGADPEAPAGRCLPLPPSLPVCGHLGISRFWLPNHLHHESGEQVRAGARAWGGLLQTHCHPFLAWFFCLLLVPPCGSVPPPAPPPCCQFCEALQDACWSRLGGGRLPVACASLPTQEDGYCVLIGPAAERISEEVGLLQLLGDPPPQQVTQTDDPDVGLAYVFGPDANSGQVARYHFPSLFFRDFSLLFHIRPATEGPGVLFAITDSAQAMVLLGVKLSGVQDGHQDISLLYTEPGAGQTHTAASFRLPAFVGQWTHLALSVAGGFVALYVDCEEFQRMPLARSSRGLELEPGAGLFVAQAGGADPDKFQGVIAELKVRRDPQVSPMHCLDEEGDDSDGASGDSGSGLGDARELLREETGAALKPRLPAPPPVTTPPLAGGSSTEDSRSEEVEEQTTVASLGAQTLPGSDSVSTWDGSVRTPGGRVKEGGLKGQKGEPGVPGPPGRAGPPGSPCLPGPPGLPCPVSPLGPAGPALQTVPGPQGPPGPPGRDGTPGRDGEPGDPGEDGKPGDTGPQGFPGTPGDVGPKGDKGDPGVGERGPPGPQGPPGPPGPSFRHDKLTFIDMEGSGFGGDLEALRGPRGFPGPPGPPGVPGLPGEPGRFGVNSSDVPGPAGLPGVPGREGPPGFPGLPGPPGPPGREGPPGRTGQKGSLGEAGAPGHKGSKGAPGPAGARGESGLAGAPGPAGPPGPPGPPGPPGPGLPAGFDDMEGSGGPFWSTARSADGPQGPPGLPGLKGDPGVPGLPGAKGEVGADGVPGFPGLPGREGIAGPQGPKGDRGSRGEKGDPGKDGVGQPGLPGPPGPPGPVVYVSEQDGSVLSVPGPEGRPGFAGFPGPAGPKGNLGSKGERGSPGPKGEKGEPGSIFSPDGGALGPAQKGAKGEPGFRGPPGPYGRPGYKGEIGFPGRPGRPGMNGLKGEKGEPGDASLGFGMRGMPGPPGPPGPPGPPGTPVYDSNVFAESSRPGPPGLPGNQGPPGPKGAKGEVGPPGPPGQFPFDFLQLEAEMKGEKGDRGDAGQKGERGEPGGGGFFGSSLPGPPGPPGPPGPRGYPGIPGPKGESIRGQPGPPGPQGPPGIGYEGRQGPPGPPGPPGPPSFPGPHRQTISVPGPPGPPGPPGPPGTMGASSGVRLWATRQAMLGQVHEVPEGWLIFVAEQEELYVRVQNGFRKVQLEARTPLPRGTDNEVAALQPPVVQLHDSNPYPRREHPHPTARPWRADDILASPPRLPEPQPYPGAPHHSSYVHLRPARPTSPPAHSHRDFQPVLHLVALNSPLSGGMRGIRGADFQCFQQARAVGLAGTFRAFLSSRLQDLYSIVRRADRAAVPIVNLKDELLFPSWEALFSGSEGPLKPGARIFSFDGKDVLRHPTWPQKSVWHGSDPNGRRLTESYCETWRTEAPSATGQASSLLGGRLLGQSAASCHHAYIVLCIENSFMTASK

B1: tissue-type plasminogen activator (tPA) (protein)
chain: SYQVICRDEKTQMIYQQHQSWLRPVLRSNRVEYCWCNSGRAQCHSVPVKSCSEPRCFNGGTCQQALYFSDFVCQCPEGFAGKCCEIDTRATCYEDQGISYRGTWSTAESGAECTNWNSSALAQKPYSGRRPDAIRLGLGNHNYCRNPDRDSKPWCYVFKAGKYSSEFCSTPACSEGNSDCYFGNGSAYRGTHSLTESGASCLPWNSMILIGKVYTAQNPSAQALGLGKHNYCRNPDGDAKPWCHVLKNRRLTWEYCDVPSCSTCGLRQYSQPQFRIKGGLFADIASHPWQAAIFAKHRRSPGERFLCGGILISSCWILSAAHCFQERFPPHHLTVILGRTYRVVPGEEEQKFEVEKYIVHKEFDDDTYDNDIALLQLKSDSSRCAQESSVVRTVCLPPADLQLPDWTECELSGYGKHEALSPFYSERLKEAHVRLYPSSRCTSQHLLNRTVTDNMLCAGDTRSGGPQANLHDACQGDSGGPLVCLNDGRMTLVGIISWGLGCGQKDVPGVYTKVTNYLDWIRDNMRP
**Q.** Which results are given for B1?
**A.** Plg-activation assay [1]: native MSA enhanced ThT fluorescence to some extent, but this was not reflected by stimulation of tPA activation; tPA activation assay [2]: a potent activator of tPA was obtained; tPA activation assay (endostatin, P39060): the absence of tPA activating properties in 100 µg ml^-1 endostatin; Plg-activation assay [3]: The presence of the cross-β structure conformation was established with ThT fluorescence and Plg-activation assays and by TEM imaging; tPA activation assay (native glucagon, P01275): at high glucagon concentration, also native glucagon has some tPA activating potential; tPA activation assay [4]: Although heat-denatured MSA and alkylated MSA enhance ThT fluorescence to a similar extent, they differ in tPA activating potential; tPA activation assay [5]: Although heat-denatured MSA and alkylated MSA enhance ThT fluorescence to a similar extent, they differ in tPA activating potential; chromogenic Plg-activation assay [6]: The positive control was amyloid fibrin peptide FP13

B2: factor XII (protein)
chain: IPPWEAPKEHKYKAEEHTVVLTVTGEPCHFPFQYHRQLYHKCTHKGRPGPQPWCATTPNFDQDQRWGYCLEPKKVKDHCSKHSPCQKGGTCVNMPSGPHCLCPQHLTGNHCQKEKCFEPQLLRFFHKNEIWYRTEQAAVARCQCKGPDAHCQRLASQACRTNPCLHGGRCLEVEGHRLCHCPVGYTGAFCDVDTKASCYDGRGLSYRGLARTTLSGAPCQPWASEATYRNVTAEQARNWGLGGHAFCRNPDNDIRPWCFVLNRDRLSWEYCDLAQCQTPTQAAPPTPVSPRLHVPLMPAQPAPPKPQPTTRTPPQSQTPGALPAKREQPPSLTRNGPLSCGQRLRKSLSSMTRVVGGLVALRGAHPYIAALYWGHSFCAGSLIAPCWVLTAAHCLQDRPAPEDLTVVLGQERRNHSCEPCQTLAVRSYRLHEAFSPVSYQHDLALLRLQEDADGSCALLSPYVQPVCLPSGAARPSETTLCQVAGWGHQFEGAEEYASFLQEAQVPFLSLERCSAPDVHGSSILPGMLCAGFLEGGTDACQGDSGGPLVCEDQAAERRLTLQGIISWGSGCGDRNKPGVYTDVAYYLAWIREHTVS
**Q.** Which results are given for B2?
**A.** auto-activation of purified factor XII, substrate S-2222 [7]: the potency of the Aβ(1-40) E22Q was somewhat lower; conversion of Chromozym PK, upon formation of kallikrein from prekallikrein by activated factor XII [7]: amyloid-like peptide aggregates of FP13 and Aβ stimulate the activation of factor XII; auto-activation of purified factor XII, substrate S-2222 [8]: FP13 K157G and Hb-AGE have a potency to induce auto-activation that was similar to the established surface activator DXS500k; factor XII/kallikrein chromogenic assay (LAM12): cross-β structure conformation rich peptides LAM12 and TTR11 stimulate factor XII activation, to a similar extent as kaolin; chromogenic kallikrein activity assay [9]: Only gelatin kept at 37 °C activated factor XII; auto-activation of purified factor XII, substrate S-2222 (native Hb, P69905): Freshly dissolved native Hb, ultracentrifuged for one hour at 100,000*g, and freshly dissolved FP13 K157G did not or hardly auto-activate factor XII (not shown); chromogenic kallikrein activity assay [10]: Only gelatin kept at 37 °C activated factor XII; factor XII/kallikrein chromogenic assay (TTR11): cross-β structure conformation rich peptides LAM12 and TTR11 stimulate factor XII activation, to a similar extent as kaolin; conversion of Chromozym PK, upon formation of kallikrein from prekallikrein by activated factor XII (mIAPP): non-amyloid controls FP10 and mIAPP do not activate factor XII; conversion of Chromozym PK, upon formation of kallikrein from prekallikrein by activated factor XII [11]: non-amyloid controls FP10 and mIAPP do not activate factor XII; auto-activation of purified factor XII, substrate S-2222 [6]: FP13 K157G and Hb-AGE have a potency to induce auto-activation that was similar to the established surface activator DXS500k; conversion of Chromozym PK, upon formation of kallikrein from prekallikrein by activated factor XII [6]: amyloid-like peptide aggregates of FP13 and Aβ stimulate the activation of factor XII; auto-activation of purified factor XII, substrate S-2222 [12]: Freshly dissolved native Hb, ultracentrifuged for one hour at 100,000*g, and freshly dissolved FP13 K157G did not or hardly auto-activate factor XII (not shown)
